# Test results published in publication PMC3102601.
# What was measured:
# Assay in all cases: purified protein
# purified protein [1] = substrate: O=CCP(=O)(O)O; conditions: Zn2+; 25.0 °C
# purified protein [2] = substrate: O=[N+]([O-])c1ccc(OP(=O)(O)O)cc1; conditions: Zn2+; 25.0 °C
# purified protein [3] = substrate: Nc1ncnc2c1ncn2[C@@H]1O[C@H](COP(=O)(O)OP(=O)(O)OP(=O)(O)O)[C@@H](O)[C@H]1O; format: biochemical, Pseudomonas fluorescens; conditions: Zn2+ active site; phosphoryl transfer to Thr64; 25.0 °C
protein,measurement,setting,value
phosphonoacetate hydrolase (PAc hydrolase) (Pseudomonas fluorescens) (protein) TQLISVNSRSYRLSSAPTIVICVDGCEQEYINQAIQAGQAPFLAELTGFGTVLTGDCVVPSFTNPNNLSIVTGAPPSVHGICGNFFFDQETQEEVLMNDAKYLRAPTILAEMAKAGQLVAVVTAKDKLRNLLGHQLKGICFSAEKADQVNLEEHGVENILARVGMPVPSVYSADLSEFVFAAGLSLLTNERPDFMYLSTTDYVQHKHAPGTPEANAFYAMMDSYFKRYHEQGAIVAITADHGMNAKTDAIGRPNILFLQDLLDAQYGAQRTRVLLPITDPYVVHHGALGSYATVYLRDAVPQRDAIDFLAGIAGVEAVLTRSQACQRFELPEDRIGDLVVLGERLTVLGSAADKHDLSGLTVPLRSHGGVSEQKVPLIFNRKLVGLDSPGRLRNFDIIDLALNHLA,Km,purified protein [1],330 ± 10 µM
same,kcat,purified protein [1],0.027 ± 0.01 s⁻¹
same,kcat/Km,purified protein [1],80 M⁻¹ s⁻¹
same,Km,purified protein [2],14000 ± 200 µM
same,kcat,purified protein [2],0.22 s⁻¹
same,kcat/Km,purified protein [2],20 M⁻¹ s⁻¹
same,Km,purified protein [3],1000 µM
same,kcat,purified protein [3],0.0002 s⁻¹
same,kcat/Km,purified protein [3],0.2 M⁻¹ s⁻¹
